Assay results: patent US20080044419A1, “Treatment of T Cell Mediated Diseases by Inhibition of Fgfr3” (Fibron Ltd., priority 2003, published 2008)
Positions count from the first letter of the chain named. Values belong to the molecule of their own block, whether it stands above or below them.

What was measured:
FGFR3 [1] = target: T1, FGFR3 (Homo sapiens, UniProt P22607); experiment: Affinity to FGFR3 measured by FACS; type: binding
FGFR3 [2] = target: T1, FGFR3; experiment: FDCP-FGFR3 proliferation assay performed with FGF9; type: cell-based; settings: dimeric dHLX format

T1 sequence (P22607 23-806): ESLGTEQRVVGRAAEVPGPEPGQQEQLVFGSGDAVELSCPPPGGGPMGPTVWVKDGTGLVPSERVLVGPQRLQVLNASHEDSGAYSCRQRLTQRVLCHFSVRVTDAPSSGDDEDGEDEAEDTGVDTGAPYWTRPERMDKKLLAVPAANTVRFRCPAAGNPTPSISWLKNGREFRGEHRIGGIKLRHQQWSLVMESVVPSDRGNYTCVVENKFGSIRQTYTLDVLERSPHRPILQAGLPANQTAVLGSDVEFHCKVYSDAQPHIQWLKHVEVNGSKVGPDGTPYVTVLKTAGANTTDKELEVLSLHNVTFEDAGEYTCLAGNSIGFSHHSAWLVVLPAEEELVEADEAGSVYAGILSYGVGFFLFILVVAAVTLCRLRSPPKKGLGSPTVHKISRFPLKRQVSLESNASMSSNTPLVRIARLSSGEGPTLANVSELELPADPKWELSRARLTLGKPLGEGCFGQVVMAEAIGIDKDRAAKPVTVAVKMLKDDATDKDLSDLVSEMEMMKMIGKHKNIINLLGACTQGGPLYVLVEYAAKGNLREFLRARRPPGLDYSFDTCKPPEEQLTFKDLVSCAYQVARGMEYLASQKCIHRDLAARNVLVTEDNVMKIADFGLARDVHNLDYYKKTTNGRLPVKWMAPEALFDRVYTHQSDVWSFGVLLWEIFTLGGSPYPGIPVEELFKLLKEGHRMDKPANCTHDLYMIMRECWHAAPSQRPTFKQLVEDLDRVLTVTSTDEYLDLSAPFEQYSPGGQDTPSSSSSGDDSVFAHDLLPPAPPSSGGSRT

B1: PRO-026: HuCAL clone anti-FGFR3 antibody; VH-CDR3 SEQ ID NO:6, VL-CDR3 SEQ ID NO:15 (antibody, V domains shown)
VH: QVQLVQSGAEVKKPGASVKVSCKASGYTFTSYYMHWVRQAPGQGLEWMGWINPNSGGTNYAQKFQGRVTMTRDTSISTAYMELSSLRSEDTAVYYCARGYWYAYFTYINYGYFDNWGQGTLVTVSS
VL: DIALTQPASVSGSPGQSITISCTGTSSDVGGYNYVSWYQQHPGKAPKLMIYDVSNRPSGVSNRFSGSKSGNTASLTISGLQAEDEADYYCQSYDNNSDVVFGGGTKLTVLGQ
Kd (FGFR3 [1]): 1.4 nM
IC50 (FGFR3 [2]): 70 nM

B3: PRO-002: HuCAL clone anti-FGFR3 antibody; VH-CDR3 SEQ ID NO:2, VL-CDR3 SEQ ID NO:11 (antibody, V domains shown)
VH: QVQLVQSGAEVKKPGASVKVSCKASGYTFTSYYMHWVRQAPGQGLEWMGWINPNSGGTNYAQKFQGRVTMTRDTSISTAYMELSSLRSEDTAVYYCARDFLGYEFDYWGQGTLVTVSS
VL: DIELTQPPSVSVAPGQTARISCSGDALGDKYASWYQQKPGQAPVLVIYDDSDRPSGIPERFSGSNSGNTATLTISGTQAEDEADYYCQSYDYSADYVFGGGTKLTVLGQ
Kd (FGFR3 [1]): 43 nM
IC50 (FGFR3 [2]): 360 nM

B6: PRO-054: HuCAL clone anti-FGFR3 antibody; VH-CDR3 SEQ ID NO:8, VL-CDR3 SEQ ID NO:17 (antibody, V domains shown)
VH: QVQLVQSGAEVKKPGASVKVSCKASGYTFTSYYMHWVRQAPGQGLEWMGWINPNSGGTNYAQKFQGRVTMTRDTSISTAYMELSSLRSEDTAVYYCARNMAYTNYQYVNMPHFDYWGQGTLVTVSS
VL: DIELTQPPSVSVAPGQTARISCSGDALGDKYASWYQQKPGQAPVLVIYDDSDRPSGIPERFSGSNSGNTATLTISGTQAEDEADYYCQSYDYFKLVFGGGTKLTVLGQ
IC50 (FGFR3 [2]): 45 nM

More lines, in order of falling IC50 (FGFR3 [2]), values ahead:

IC50 (FGFR3 [2]): 34 nM
B2: PRO-055: HuCAL clone anti-FGFR3 antibody; VH-CDR3 SEQ ID NO:9, VL-CDR3 SEQ ID NO:18 (antibody, V domains shown)
VH: QVQLVQSGAEVKKPGASVKVSCKASGYTFTSYYMHWVRQAPGQGLEWMGWINPNSGGTNYAQKFQGRVTMTRDTSISTAYMELSSLRSEDTAVYYCARSMNSTMYWYLRRVLFDHWGQGTLVTVSS
VL: B1 VL with N95M, N96Y, S97N, D98Y, V99I

Kd (FGFR3 [1]): < 1 nM
IC50 (FGFR3 [2]): 20 nM
B5: PRO-029: HuCAL clone anti-FGFR3 antibody; VH-CDR3 SEQ ID NO:7, VL-CDR3 SEQ ID NO:16 (antibody, V domains shown)
VH: QVQLVQSGAEVKKPGASVKVSCKASGYTFTSYYMHWVRQAPGQGLEWMGWINPNSGGTNYAQKFQGRVTMTRDTSISTAYMELSSLRSEDTAVYYCARTWQYSYFYYLDGGYYFDIWGQGTLVTVSS
VL: DIVLTQSPATLSLSPGERATLSCRASQSVSSSYLAWYQQKPGQAPRLLIYGASSRATGVPARFSGSGSGTDFTLTISSLEPEDFATYYCQQTNNAPVTFGQGTKVEIKRT

Kd (FGFR3 [1]): 0.7 nM
IC50 (FGFR3 [2]): 19 nM
B4: PRO-001: HuCAL clone anti-FGFR3 antibody; VH-CDR3 SEQ ID NO:1, VL-CDR3 SEQ ID NO:10; VH SEQ ID NO:19, VL SEQ ID NO:28 (antibody, V domains shown)
VH: QVQLQQSGPGLVKPSQTLSLTCAISGDSVSSNSAAWNWIRQSPGRGLEWLGRTYYRSKWYNDYAVSVKSRITINPDTSKNQFSLQLNSVTPEDTAVYYCARSYYPDFDYWGQGTLVTVSS
VL: B3 VL with Y92G, S93P, A94D, D95L, Y96W
modifications: SEQUENCE FROM PHAGE LIBRARY
